Key:
[1] = molecular target: Arabidopsis thaliana OSCA1.2 (Arabidopsis thaliana) (UniProt Q5XEZ5); experiment: cryo-EM structure; OSCA1.2 reconstituted in peptidiscs, ~8 mg/mL; 2.8 Å map, C2 symmetry imposed
[2] = molecular target: the molecule itself; experiment: cryo-EM structure; OSCA2.3 reconstituted in peptidiscs, ~3.6 mg/mL, TBS with 2 mM DTT; 2.7 Å map, C2 symmetry imposed
[3] = molecular target: the molecule itself; experiment: cryo-EM structure; OSCA1.2 reconstituted in peptidiscs, ~8 mg/mL; 2.8 Å map, C2 symmetry imposed

## NSPr peptide (peptidisc peptide)
[1]
  stoichiometry N: 4 per protomer

B1: Arabidopsis thaliana OSCA2.3 (natural protein, UniProt Q8GUH7 1-703, looked up)
chain: MLLSALLTSVGINLGLCFLFFTLYSILRKQPSNVTVYGPRLVKKDGKSQQSNEFNLERLLPTAGWVKRALEPTNDEILSNLGLDALVFIRVFVFSIRVFSFASVVGIFILLPVNYMGTEFEEFFDLPKKSMDNFSISNVNDGSNKLWIHFCAIYIFTAVVCSLLYYEHKYILTKRIAHLYSSKPQPQEFTVLVSGVPLVSGNSISETVENFFREYHSSSYLSHIVVHRTDKLKVLMNDAEKLYKKLTRVKSGSISRQKSRWGGFLGMFGNNVDVVDHYQKKLDKLEDDMRLKQSLLAGEEVPAAFVSFRTRHGAAIATNIQQGIDPTQWLTEAAPEPEDVHWPFFTASFVRRWISNVVVLVAFVALLILYIVPVVLVQGLANLHQLETWFPFLKGILNMKIVSQVITGYLPSLIFQLFLLIVPPIMLLLSSMQGFISHSQIEKSACIKLLIFTVWNSFFANVLSGSALYRVNVFLEPKTIPRVLAAAVPAQASFFVSYVVTSGWTGLSSEILRLVPLLWSFITKLFGKEDDKEFEVPSTPFCQEIPRILFFGLLGITYFFLSPLILPFLLVYYCLGYIIYRNQLLNVYAAKYETGGKFWPIVHSYTIFSLVLMHIIAVGLFGLKELPVASSLTIPLPVLTVLFSIYCQRRFLPNFKSYPTQCLVNKDKADEREQNMSEFYSELVVAYRDPALSASQDSRDISP
notes: OSCA2.3 of Arabidopsis thaliana, UniProt Q8GUH7, full-length, human codon optimized cDNA; 703 residues as printed; C-terminal PreScission Protease site with 4-5 residue linkers before the tags; After PreScission cleavage, remnants of the linker and of the cleavage site stay at the C-terminus; Final model holds residues 3-26, 65-115, 129-225, 302-368, 410-517 and 536-691; also called AtOSCA2.3; …
[2]
  stoichiometry N: 2

B2: Arabidopsis thaliana OSCA1.2 (natural protein)
chain: MATLQDIGVSAGINILSAFVFFIIFAVLRLQPFNDRVYFSKWYLKGLRSSPARGGAFAQRFVNLDFRSYMKFLNWMPEALKMPEPELIDHAGLDSVVYLRIYWLGLKIFTPIAVLAWAVLVPVNWTNNTLEMAKQLRNVTSSDIDKLSVSNIPEYSMRFWTHIVMAYAFTIWTCYVLMKEYETIANMRLQFVASEARRPDQFTVLVRNVPPDADESVSELVEHFFLVNHPDHYLTHQVVCNANKLADLVKKKKKLQNWLDYYQLKYARNNSQRIMVKLGFLGLWGQKVDAIEHYIAEIDKISKEISKEREEVVNDPKAIMPAAFVSFKTRWAAAVCAQTQQTRNPTQWLTEWAPEPRDVFWSNLAIPYVSLTVRRLIMHVAFFFLTFFFIVPIAFVQSLATIEGIVKAAPFLKFIVDDKFMKSVIQGFLPGIALKLFLAFLPSILMIMSKFEGFTSISSLERRAAFRYYIFNLVNVFLASVIAGAAFEQLNSFLNQSANQIPKTIGVAIPMKATFFITYIMVDGWAGVAGEILMLKPLIMFHLKNAFLVKTDKDREEAMDPGSIGFNTGEPRIQLYFLLGLVYAPVTPMLLPFILVFFALAYIVYRHQIINVYNQEYESAAAFWPDVHGRVIAALVISQLLLMGLLGTKHAALAAPFLIALPVLTIGFHHFCKGRYEPAFIRYPLQEAMMKDTLETAREPNLNLKGYLQNAYVHPVFKGDEDDYDIDDKLGKFEDEAIIVPTKRQSRRNTPAPSIISGDDSPSLPFSGKLV
notes: OSCA1.2 of Arabidopsis thaliana, UniProt Q5XEZ5; Final model holds residues 2-50, 71-121, 157-266, 290-487, 505-648, 654-718; also called AtOSCA1.2
[3]
  binding result: binds

— doi:10.1101/2023.06.15.545135, “Structure of mechanically activated ion channel OSCA2.3 reveals mobile elements in the transmembrane domain” (bioRxiv, 2023)
